Data taken from US20220177594A1.
Substitutions are numbered along the chain they refer to.

B1: CAN_09E09_1.2 (antibody)
heavy: EVQLVESGGDLVKPGGSLRLSCVASGFTFSSYAMSWVRQAPGKGLQWVAYISSGGDYIYYADTVKGRFTISRDNAKNTLYLQMNSLRAEDTAMYYCVRDPITGTFAYWGQGTLVTVSSASTTAPSVFPLAPSCGSTSGSTVALACLVSGYFPEPVTVSWNSGSLTSGVHTFPSVLQSSGLYSLSSMVTVPSSRWPSETFTCNVAHPASKTKVDKPVPKRENGRVPRPPDCPKCPAPEMLGGPSVFIFPPKPKDTLLIARTPEVTCVVVDLDPEDPEVQISWFVDGKQMQTAKTQPREEQFNGTYRVVSVLPIGHQDWLKGKQFTCKVNNKALPSPIERTISKARGQAHQPSVYVLPPSREELSKNTVSLTCLIKDFFPPDIDVEWQSNGQQEPESKYRTTPPQLDEDGSYFLYSKLSVDKSRWQRGDTFICAVMHEALHNHYTQESLSHSPGK
light: DIVLTQPTSVSGSLGQRVTISCRASQDINNYLNWYQQLPGKAPKLLVYYTSTLHSGVPDRFSGSNSGSSATLTITGLQAEDEADYYCQQGNTLPWTFGQGTRNDAQPAVYLFQPSPDQLHTGSASVVCLLNSFYPKDINVKWKVDGVIQDTGIQESVTEQDKDSTYSLSSTLTMSSTEYLSHELYSCEITHKSLPSTLIKSFQRSEC
B2: FEL_09E09_1.1 (antibody)
heavy: DVQLVESGGDLVKPGGSLRLTCVASGFTYSSYAMSWVRQAPGKGLQWVAYISSGGDYIYYADTVKGRFTISRDNAKNTLYLQMNSLKTEDTATYYCVRDPITGTFAYWGQGTLVTVSSASTTAPSVFPLAPSCGTTSGATVALACLVLGYFPEPVTVSWNSGALTSGVHTFPAVLQASGLYSLSSMVTVPSSRWLSDTFTCNVAHPPSNTKVDKTVRKTDHPPGPKPCDCPKCPPPEAAGAPSIFIFPPKPKDTLSISRTPEVTCLVVDLGPDDSDVQITWFVDNTQVYTAKTSPREEQFNSTYRVVSVLPILHQDWLKGKEFKCKVNSKSLPSPIERTISKAKGQPHEPQVYVLPPAQEELSRNKVSVTCLIKSFHPPDIAVEWEITGQPEPENNYRTTPPQLDSDGTYFVYSKLSVDRSHWQRGNTYTCSVSHEALHSHHTQKSLTQSPGK
light: EIQMTQSPSSLSASPGDRVTITCRASQDINNYLNWYQQKPGKVPKLLIYYTSTLHSGVPSRFSGSGSGTDFTLTISSLEPEDAATYYCQQGNTLPWTFGQGTRSDAQPSVFLFQPSLDELHTGSASIVCILNDFYPKEVNVKWKVDGVVQNKGIQESTTEQNSKDSTYSLSSTLTMSSTEYQSHEKFSCEVTHKSLASTLVKSFQRSECQRE
B3: FEL_10F07_1.2 (antibody)
heavy: B2 heavy with I58F
light: DITMTQSPGSLAGSPGQQVTMNCRASQDITNYLNWYQQKPGQHPKLLIYYTSTLHSGVPDRFSGSGSGTDFTLTISNLQAEDVASYYCQQGHMLPWTFGQGTRSDAQPSVFLFQPSLDELHTGSASIVCILNDFYPKEVNVKWKVDGVVQNKGIQESTTEQNSKDSTYSLSSTLTMSSTEYQSHEKFSCEVTHKSLASTLVKSFQRSECQRE
B4: FEL_10F07_2.1 (antibody)
heavy: B2 heavy with Y29F, I58F, N74D, N84S, V97T, R98G
light: B2 light with N30T, N92H, T93M

Biological target: Canine_OSMR_hlgG1_Fc (canine)
Assay: SPR Biacore

Canine_OSMR_hlgG1_Fc (canine), sequence (chain, as listed by the source limits assumed, form in doubt): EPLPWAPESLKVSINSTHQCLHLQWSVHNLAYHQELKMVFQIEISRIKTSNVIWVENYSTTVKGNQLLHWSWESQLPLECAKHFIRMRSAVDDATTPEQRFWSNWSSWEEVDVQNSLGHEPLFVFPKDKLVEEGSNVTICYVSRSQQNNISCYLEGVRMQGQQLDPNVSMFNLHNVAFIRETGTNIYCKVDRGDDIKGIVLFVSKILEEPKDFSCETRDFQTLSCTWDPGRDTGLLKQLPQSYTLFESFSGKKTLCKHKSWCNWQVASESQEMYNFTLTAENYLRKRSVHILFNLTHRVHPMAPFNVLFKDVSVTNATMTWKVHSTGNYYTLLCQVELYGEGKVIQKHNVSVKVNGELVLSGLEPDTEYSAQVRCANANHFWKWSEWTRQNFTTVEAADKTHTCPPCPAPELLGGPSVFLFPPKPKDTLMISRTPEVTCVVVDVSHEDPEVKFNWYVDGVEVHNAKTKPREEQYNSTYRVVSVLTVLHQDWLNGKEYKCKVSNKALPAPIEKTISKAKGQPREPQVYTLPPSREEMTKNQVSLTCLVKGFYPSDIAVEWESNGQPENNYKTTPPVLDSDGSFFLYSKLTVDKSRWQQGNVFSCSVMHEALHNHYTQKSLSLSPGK

Binder | Kd [nM] | koff [s⁻¹] | kon [M⁻¹ s⁻¹]
B1 | 37.7 | 0.00108 | 28600
B2 | 18.2 | 0.00105 | 57500
B3 | 13.3 | 0.000885 | 66500
B4 | 10 | 0.000851 | 85000

Biological target: Feline_OSMR_hlgG1_Fc (feline)
Assay: SPR Biacore

Feline_OSMR_hlgG1_Fc (feline), sequence (chain, as listed by the source limits assumed, form in doubt): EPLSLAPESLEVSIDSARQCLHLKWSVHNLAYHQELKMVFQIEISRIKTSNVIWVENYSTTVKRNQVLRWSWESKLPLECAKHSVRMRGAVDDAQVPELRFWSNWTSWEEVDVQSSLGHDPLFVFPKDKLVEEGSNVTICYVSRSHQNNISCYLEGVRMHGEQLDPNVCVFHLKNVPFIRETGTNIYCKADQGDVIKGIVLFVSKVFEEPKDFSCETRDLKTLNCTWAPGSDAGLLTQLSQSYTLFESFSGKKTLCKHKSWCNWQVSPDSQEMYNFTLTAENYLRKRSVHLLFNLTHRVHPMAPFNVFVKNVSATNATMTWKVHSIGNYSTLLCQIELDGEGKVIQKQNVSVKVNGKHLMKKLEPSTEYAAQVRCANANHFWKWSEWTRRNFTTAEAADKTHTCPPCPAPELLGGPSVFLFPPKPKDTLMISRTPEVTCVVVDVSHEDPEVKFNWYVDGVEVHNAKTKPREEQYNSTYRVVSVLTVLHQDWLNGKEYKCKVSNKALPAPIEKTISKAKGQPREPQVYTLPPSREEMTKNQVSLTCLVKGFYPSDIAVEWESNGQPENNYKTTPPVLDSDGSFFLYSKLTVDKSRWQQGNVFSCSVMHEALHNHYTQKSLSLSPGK

Binder | Kd [nM] | koff [s⁻¹] | kon [M⁻¹ s⁻¹]
B1 | 11 | 0.00184 | 167000
B2 | 7.73 | 0.000979 | 127000
B3 | 4.75 | 0.00061 | 128000
B4 | 2.2 | 0.00042 | 191000
